Laboratory results taken from the supplement of paper PMC12042874.
± gives the uncertainty stated by the source.

Assay: amyloid nucleation score (Sup35N fusion, yeast selection) (log enrichment); library NNK1; higher = more nucleation; inactive = no reads after selection
Method in brief: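 After 24 hours of induction with 100 μM copper sulfate, psi-negative yeast expressing peptides of 20 random codons fused to Sup35N were grown for 7 days at 30°C on medium lacking adenine and uracil. Input and output plasmid inserts were sequenced with Illumina, and sequences with under 100 input reads were discarded. Scores for nucleation are the DiMSum log enrichment of output over input reads, centred on the mode score of non-aggregating sequences.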

Row | Substance | amyloid nucleation score
1 | EMEVLSVPSVLLVIVVR | -1.04 ± 0.66
2 | VGTTLRFWGKLFNPVDKAIR | -0.619 ± 0.46
3 | LGVPRVISCSCHLSVRNSAK | 0.413 ± 0.9
4 | MSCTVHLGLFMESTNHYCMC | inactive
5 | NVGGFQSLPEYNSYRMRAEQ | 0.26 ± 0.56
6 | SFYLFCPNCGRWTVFGEYS | -1 ± 0.31
7 | VATIQRISGIKQESAGSRTF | -0.07 ± 0.93
8 | LLLRSRSTRF | -0.233 ± 0.3
9 | LTFLYLYWNFNIYGIYGTTI | 0.91 ± 0.19
10 | KDLLYKSIRW | 1.03 ± 0.27
11 | SGAVIYANKFYVISCHNWSY | 7.478 ± 0.057
12 | DAEFRHGAIIGLMVGGVVIA | 3.45 ± 0.22
13 | IIAIPHLTLSWTNLSMGQG | 3.76 ± 0.1
14 | PFFWFH | -0.482 ± 0.26
15 | ICDYPIVMRKYPVS | -1.68 ± 1.4
16 | YLREVYFFMGVWDRK | 0.15 ± 0.44
17 | SPFMGCLYNLLDLDDGS | -0.65 ± 0.51
18 | HIPNDARRLFGSMGVSRASA | -0.407 ± 1
19 | RLFWLRNLPLWASYK | 0.07 ± 0.47
20 | NVRALILIKNCSPQMLRNEF | 5.07 ± 0.06
21 | MHGSGLHSDSLGPTV | 0.565 ± 0.69
22 | VLRQMS | 1.67 ± 0.19
23 | RECFRQANFCFMGLSTLGKS | -0.88 ± 0.79
24 | MSYIQRMGVYLTITGLRGMK | -0.527 ± 1
25 | CLGVSSGRLKCYVNYYCDNW | 0.106 ± 0.51
26 | LSGVCRIFH | 0.584 ± 0.35

Row | Substance | amyloid nucleation score
27 | FGMKMGMMRVV | -0.688 ± 1.2
28 | DYVPYEKAHRARMYCPTHQG | 0.409 ± 0.35
29 | VAKSRCYTQCGLGYLSRKLA | inactive
30 | YLCDSSLGVVYSFLHCRMVD | -0.369 ± 0.67
31 | VWLCLRIVVSGNNRACFICV | 1.46 ± 0.19
32 | VYTSRDGNDLEACGGYSAIV | 0.705 ± 0.71
33 | RFFISYTFSWPRYLVGKDLL | -0.936 ± 0.34
34 | LLATCVRVECY | 1.58 ± 0.51
35 | FVLWIY | 0.14 ± 0.47
36 | CHYFMNTLIV | inactive
37 | NIANSWYW | -0.537 ± 1.9
38 | VRHTQHRSSL | -1.62 ± 1.3
39 | DYPCRRGDLRRG | 0.642 ± 0.95
40 | SWGFSMLRMEEWRMPVLFYS | -0.446 ± 0.58
41 | FRRLRMLLILASKFGVD | -0.392 ± 0.34
42 | LTSFSTDPISGLLAGCFSID | inactive
43 | ANRYRVLKE | 3.88 ± 0.095
44 | FGLAGHFYNWNYIYTSSVWF | -0.021 ± 0.59
45 | GGIYSLSMNIVWATGCL | -0.361 ± 0.93
46 | FCNNATSTQGNVFSGLLWTL | -0.202 ± 0.27
47 | PIGLMGFRLSSICLSIRTLP | -0.469 ± 0.65
48 | GLAGTLDPLTASDLLSRIGV | 0.182 ± 0.62
49 | ASVYQRWPSFYRRLFVFNVI | 0.358 ± 0.55
50 | LDWAWFYCSRNKRFSTILFR | 0.138 ± 0.79
51 | LQCQN | 0.702 ± 0.4
52 | YYQRGVDYNIVFLRT | 1.16 ± 0.52

Row | Substance | amyloid nucleation score
53 | SGHGFLRQ | inactive
54 | CELRTD | inactive
55 | DVLSSNVFRNWVMVRSYSRQ | 0.795 ± 0.52
56 | TAKRLAT | 0.21 ± 0.8
57 | TLGLVDERHEDWIVLDYTLG | 0.422 ± 0.53
58 | LLTDRRDSSSRNDTLVRKGM | 2.23 ± 0.091
59 | LGRGSGYRVLVMYLSVHC | 0.164 ± 0.29
60 | ILIAKCSLPCYMKRGNAPCL | 1.37 ± 0.59
61 | CWKLETYTSTDSQVGQANLK | -1.28 ± 0.96
62 | VDLLGTTDGRSRVLFRIRTR | 0.151 ± 0.59
63 | LLFTNEKHNSLVNQGTPEWC | 0.13 ± 0.9
64 | RCGFSLNFC | 3.2 ± 0.097
65 | NYYFAKSLLHI | 1.27 ± 0.79
66 | SNIASNKKVIMINHFKGFSL | 3.58 ± 0.057
67 | KMSVRNVTDFGVRLVRYFNG | 1.42 ± 0.22
68 | TAGCICPCKQAVYGICQSRT | -0.447 ± 0.71
69 | RLKHDWWITVCLYRVQLNTV | 1.59 ± 0.55
70 | SGTSLPNITLLDTFCTRCFV | -0.095 ± 0.22
71 | TRCRWLQ | 0.931 ± 0.93
72 | FRIAGSKRCFCID | 0.463 ± 0.31
73 | NPRLCPKDMRGRPQEKRVPQ | -0.345 ± 1.7
74 | RSYVVSPVNY | -1.18 ± 0.76
75 | VKYWFVVGVVLSWFTER | -0.304 ± 0.24
76 | LGGVSSVLFYSHFLQVLEWC | -1.12 ± 0.78
77 | TSYYRGFYKYAWNG | 0.21 ± 0.39
78 | NGWPWGERSALRMG | -0.573 ± 0.95

Row | Substance | amyloid nucleation score
79 | NPMLLPSEPSS | -0.181 ± 0.42
80 | NHRNVMRQIDASVMGVYNTW | 0.766 ± 1.2
81 | ERSYSNWAMG | 0.958 ± 0.74
82 | WLMVLATGAYAMHWVVTSSL | 2.98 ± 0.069
83 | INYTTWHYASCFRFT | 2.82 ± 0.14
84 | ESSMLAMVGIQSTWCNVSYG | 1.67 ± 0.2
85 | SNKDLKSLTICRSTQHWTVL | 0.095 ± 0.27
86 | FSYCAFHIMNQWVVFNYGGC | 6.421 ± 0.06
87 | MVAIMQISMGSAVFLYAR | 4.24 ± 0.097
88 | TGSLG | -0.214 ± 0.31
89 | PKMGSGHSWTRGQYICHS | -0.301 ± 1.1
90 | NSYVLVNCALLRLGRINVFY | 7.56 ± 0.077
91 | FRLVNIIR | 0.317 ± 0.33
92 | ENFLTNYFYSVVTVI | -1.51 ± 1.2
93 | VDLALLYCDIKMQLV | 1.14 ± 0.88
94 | SYMNGKWMSMWVRLWGCLAF | 0.004 ± 0.48
95 | GDLGCVYSLFRSLFSSFTRS | 0.111 ± 0.35
96 | MRDTFFLDRMQITLCSW | 0.306 ± 0.33
97 | ESSAIRNGEC | 0.252 ± 0.52
98 | QDTRTLQGCRQWQRWITAEG | 0.678 ± 0.84
99 | VNEIRT | -0.153 ± 1.2
100 | HCFRWSMLGLRYATCPFQSD | -0.108 ± 0.37
101 | ASTMFQIYVHPNYTISLMLK | 0.44 ± 0.28
102 | TILGVITKIVQTLLWMPWVA | -1.37 ± 0.9
103 | EFRSSVDWNAFMKLLVCTKH | 0.021 ± 0.93
104 | SLPRPIMFSLVVIILYNFVR | -0.333 ± 0.47

Row | Substance | amyloid nucleation score
105 | DILCASPTLLAE | 0.161 ± 0.49
106 | VFLACNMMYDTKVQTHGYRG | 4.23 ± 0.07
107 | LSRLRLSAAGSADRESLVVS | 0.538 ± 0.5
108 | GSDMIVYIYRCTVTLMGSST | 3.83 ± 0.099
109 | SSSHDSIVFVRRLPHYCRGF | 0.323 ± 0.43
110 | AKCAVASAIKVQQDDADGPD | -0.012 ± 0.52
111 | LIFRRGTALFVLPVARYRCA | -1.57 ± 1.8
112 | KRRWPSSNGDFFAECYQLGT | 0.461 ± 0.25
113 | GVKSQTMLGLQRSAAFILCY | -0.127 ± 0.55
114 | VPTVCYFSNQVR | -0.434 ± 0.33
115 | SLLDMIYVIDTTTKNCILSK | 0.983 ± 0.35
116 | SWVNRPYWSPGDTTVWYGC | 1.06 ± 0.52
117 | TKMCF | 0.105 ± 0.41
118 | LGTSEKGNRKNR | inactive
119 | LWLTFFSQ | 2.35 ± 0.11
120 | DACIGWVRYRSILCCMVLVA | -0.005 ± 1.7
121 | FNSGNQ | -0.442 ± 0.37
122 | NLECFTCFFLYTIDMNLKP | 4.94 ± 0.053
123 | VRRDQDRPFSTMRQGLRFGH | 0.248 ± 0.31
124 | DRCSY | -0.431 ± 0.39
125 | SNGRFWYMADSVST | inactive
126 | MAICSGMTSWAVLLEVWN | 0.504 ± 0.57
127 | YVVCRTFSVPAYSLRLQLRR | 0.353 ± 0.26
128 | SYGSVCNDNQSNRRYVHIHM | 2.89 ± 0.22
